Results published in patent US8871276B2, “Beta-casein assemblies for mucosal delivery of therapeutic bioactive agents” (Technion Research and Development Foundation Ltd., priority 2008, dated 2014).

Assay: Isothermal titration calorimetry (ITC) of β-casein micellization
Assay type: physicochemical
Experimental: […] The reaction cell (V=1.43 mL) was filled with degassed solvent (lactic acid at pH 2.6, or phosphate buffer at pH 7.0). The injector-stirrer syringe (289 μL) was loaded with a β-casein micellar solution (20 mg/mL). The micellar solution was injected into the reaction cell in 28 steps of 10 μL aliquots each, and the heat flow was measured. During the titration, the stirring speed was 310 rpm. The duration of each injection was 20 s, and the equilibration time between consecutive injections was 3 min. Such an interval was sufficient to equilibrate the reaction cell after every injection. Each experiment was performed at least three times. Calorimetric data analysis was carried out using Origin 5.0 software (MicroCal).
β-casein micellar solution was titrated into lactic acid buffer (pH 2.6) placed in the ITC cell, and the heat flow was measured as a function of time (FIG. 6A). Three factors contribute to the exothermic enthalpy changes observed at the initial injections: micelle dilution, demicellization, and dilution of individual β-casein molecules. The enthalpy changes decrease in magnitude as more protein is added and the concentration in the ITC cell increases. Eventually, the concentration in the cell exceeds the CMC and only micelle dilution contributes to the heat flow. In FIG. 6B the heat of the reaction, obtained by integrating the peaks of the individual injections given in FIG. 6A, is plotted against the β-casein concentration in the cell. A slow increase in the reaction enthalpy was observed, resulting in micellixation relative cooperativity (MR) of 0.14 mM (FIG. 6b), which is more than twice than the value found at pH 7.0 and IS of 0.1. FIG. 6B also presents the heat of demicellization, ΔHdemic, which equals the enthalpy difference between the two asymptotes of the sigmoid fit of the experimental data (obtained by using the Origin software). It is shown that at 24° C. ΔHdemic is ≦17.9 kJ/mol, relatively small compared with the −40.53 kJ/mol found at pH 7.0 and IS of 0.1. […] This value is approximately twice the CMC found at pH 7 and ionic strength 0.1. The small ΔHdemic, the high CMC, and the large MR indicate that the driving forces for micellization under acidic conditions are reduced compared with those at physiological pH and high IS.

B1: β-casein: bovine β-casein self-assembled into unloaded micelles in acidic or neutral buffer (protein, UniProt P02666 16-224, looked up)
Beta-casein: RELEELNVPGEIVESLSSSEESITRINKKIEKFQSEEQQQTEDELQDKIHPFAQTQSLVYPFPGPIPNSLPQNIPPLTQTPVVVPPFLQPEVMGVSKVKEAMAPKHKEMPFPKYPVEPFTESQSLTLTDVENLHLPLPLLQSWMHQPHQPLPPTVMFPPQSVLSLSQSKVLPVPQKAVPYPQRDMPIQAFLLYQEPVLGPVRGPFPIIV
modifications: self-assembled micelles
notes: bovine β-casein self-assembled into unloaded micelles in acidic or neutral buffer
For B1, the “Micellization relative cooperativity (MR)” value (lactic acid pH 2.6, 24 °C) was 0.14 mM, the “Heat of demicellization ΔHdemic” value (pH 2.6, 24 °C) was no more than 17.9 kJ/mol and the CMC (pH 2.6, 24 °C, by ITC) was 1.89 mg/mL. The CMC (pH 2.6, 25 °C, by ITC) was 0.19 wt %, the CMC (pH 2.6, by ITC) was 0.079 mM and the “Heat of demicellization ΔHdemic” value (pH 7.0, IS 0.1) was -40.53 kJ/mol.
